The values that follow come from publication PMC5522039, “Non-invasive assessment of murine PD-L1 levels in syngeneic tumor models by nuclear imaging with nanobody tracers” (Oncotarget, 2017).

B1: F1 (VHH)
VHH: QVQLQESGGGLVQAGGSLRLSCTASRTTSSINIMAWYRQAPGKRRELVALSIRGGNTHYADSVKGRFTISGVHANNTVYLQMNSLKPEDTAVYYCNTGGYWGQGTQVTVSS
B2: H1 (VHH)
VHH: QVQLQESGGGLVQAGGSLRLSCAASGRTFSSRGMGWFRQAPGKEREFVAAISWGGGTTYYADSVKGRFTISRDNAKNTVYLQMNSLKPEDTAVYYCAAHTGFPHEYDYWGQGTQVTVSS
B3: Nb E2 (VHH)
VHH: QVQLQESGGGLVQAGGSLRLSCATSGSIFSIISMGWYRQAPGKQRELVALVFRGGSTVYADSVKGRFTISGDIAKNTVYLQMDSLKPEDTAVYYCNVKSIGTAQYWGQGTQITVSS
notes: Nanobody from a dromedary immunised with RAW264.7 cells; recloned into pHEN6 for the C-terminal His6 tag; also called anti-PD-L1 Nb E2; source: E. coli fermentation cultures, purified; not shown: His6, C-terminal, kept
B4: Nb E4 (VHH)
VHH: QVQLQESGGGLVHPGGSLRLSCATSGSIFSIISMGWYRQAPGKQRELVALVFRGGSTVYADSVKGRFTISGDIAKSTVYLQMDSLKPEDTAVYYCNAKPIGTAQYWGQGTQVTVSS
notes: Nanobody from a dromedary immunised with RAW264.7 cells; recloned into pHEN6 for the C-terminal His6 tag; also called anti-PD-L1 Nb E4; source: E. coli fermentation cultures, purified; not shown: His6, C-terminal, kept
B5: Nb C3 (VHH)
VHH: QVQLQESGGGLVQTGGSLRLSCAASGSTVSSSMMAWWRQTPGNQRELVALVASGNNTNYVDSVKGRFTVSRDNAKNTMYLQMNSLKPEDTAVYYCRILSVNGIWYWGQGTQVTVSS
notes: Nanobody from a dromedary immunised with RAW264.7 cells; recloned into pHEN6 for the C-terminal His6 tag; also called anti-PD-L1 Nb C3; source: E. coli fermentation cultures, purified; not shown: His6, C-terminal, kept
B6: Nb C7 (VHH)
VHH: QVQLQESGGGSVQAGESLTLSCTASGSSLSHKSVGWWRQTPGNQRELVALVASGNNTNYVDSVKGRFTVSRDNAKNTMYLQMNSLKPEDTAVYYCRILSVNGIWYWGQGTQVTVSS
notes: Nanobody from a dromedary immunised with RAW264.7 cells; recloned into pHEN6 for the C-terminal His6 tag; also called anti-PD-L1 Nb C7; source: E. coli fermentation cultures, purified; not shown: His6, C-terminal, kept
B7: Nb E2 (purified, C-terminal His6 tag) (VHH)
VHH: QVQLQESGGGLVQAGGSLRLSCATSGSIFSIISMGWYRQAPGKQRELVALVFRGGSTVYADSVKGRFTISGDIAKNTVYLQMDSLKPEDTAVYYCNVKSIGTAQYWGQGTQITVSS
notes: source: E. coli (pHEN6), purified; not shown: His6, C-terminal, kept
B8: Nb E4 (purified, C-terminal His6 tag) (VHH)
VHH: QVQLQESGGGLVHPGGSLRLSCATSGSIFSIISMGWYRQAPGKQRELVALVFRGGSTVYADSVKGRFTISGDIAKSTVYLQMDSLKPEDTAVYYCNAKPIGTAQYWGQGTQVTVSS
notes: as for B7
B9: Nb C7 (purified, C-terminal His6 tag) (VHH)
VHH: QVQLQESGGGSVQAGESLTLSCTASGSSLSHKSVGWWRQTPGNQRELVALVASGNNTNYVDSVKGRFTVSRDNAKNTMYLQMNSLKPEDTAVYYCRILSVNGIWYWGQGTQVTVSS
notes: as for B7

The target in the first assay is T1, His-tagged recombinant mouse PD-L1 protein (Mus musculus, UniProt Q9EP73).
T1 sequence (Q9EP73 19-239): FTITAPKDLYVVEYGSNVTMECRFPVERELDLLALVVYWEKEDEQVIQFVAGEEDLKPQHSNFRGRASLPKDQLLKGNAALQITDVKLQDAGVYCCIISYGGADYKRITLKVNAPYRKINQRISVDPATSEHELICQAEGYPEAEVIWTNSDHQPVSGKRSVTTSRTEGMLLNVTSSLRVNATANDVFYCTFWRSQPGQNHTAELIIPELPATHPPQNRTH
Assay: not given
Conditions: not given
With B1, the binding result was “binds”.

Regarding B2, the binding result was “binds”.

In the next assay the target is T1, His-tagged recombinant mouse PD-L1 …. Briefly: SPR; His-tagged mouse or human PD-L1 immobilised on a CM5 chip (EDC/NHS, between 650 and 900 RU); purified Nbs, 9 dilutions, 120 sec binding, 160 sec dissociation; Biacore T200, 25°C, HBS (0.01 M HEPES pH 7.4, 0.15 M NaCl, 3 mM EDTA, 0.005% Tween 20); 1-to-1 fit; n = 1. Particulars: both partners purified.
In the case of B3, the Kd – broadly, the concentration at which binding is half-saturated – was found to be 2.1 nM.

As to B4, the Kd amounted to 4 nM.

For B5, the equilibrium dissociation constant (Kd) came to 0.5 nM.

As to B6, the Kd came to 17 nM.

In a further assay the target is T2, His-tagged recombinant human PD-L1 protein (Sino Biological #10084-H08H) (Homo sapiens, UniProt Q9NZQ7).
T2 construct: programmed death-ligand 1 (PD-L1, B7-H1, CD274), human; also called huPD-L1; source: bought: Sino Biological (#10084-H08H)
T2 sequence (Q9NZQ7 19-238): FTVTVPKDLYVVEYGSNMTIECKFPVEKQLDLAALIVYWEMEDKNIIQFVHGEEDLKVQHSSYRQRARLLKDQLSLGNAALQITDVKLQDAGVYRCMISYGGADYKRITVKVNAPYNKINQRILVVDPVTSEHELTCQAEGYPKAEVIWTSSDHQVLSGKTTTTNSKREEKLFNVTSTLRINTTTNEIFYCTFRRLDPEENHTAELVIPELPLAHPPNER
The assay is described as follows: SPR; Biacore T200, 25°C, HBS (0.01 M HEPES pH 7.4, 0.15 M NaCl, 3 mM EDTA, 0.005% Tween 20); His-tagged recombinant human PD-L1 amine-coupled on a CM5 chip (650-900 RU); purified Nb as analyte, 9 dilutions (0.15-1000 nM), 120 s association, 160 s dissociation; 1-to-1 fit; n = 1. As to conditions: both partners purified. A general note: SPR reads the build-up and loss of mass on a sensor chip optically.
On to B7, for which the Kd turned out to be 55.1 nM.

As to B8, the dissociation constant (Kd) turned out to be 46.1 nM.

For the molecule B9, the Kd amounted to 74.5 nM.
